Reference: publication PMC11020826

Molecular target: PYE-GFP (Arabidopsis) (UniProt Q9SN74)
Assay: FRET or BRET; FRET-APB (acceptor photobleaching) in nuclei of transiently transformed tobacco leaf epidermis cells; GFP donor, mCherry acceptor; ß-estradiol-induced; n = 15 nuclei; negative control donor only

UniProt Q9SN74, sequence (Q9SN74 whole entry): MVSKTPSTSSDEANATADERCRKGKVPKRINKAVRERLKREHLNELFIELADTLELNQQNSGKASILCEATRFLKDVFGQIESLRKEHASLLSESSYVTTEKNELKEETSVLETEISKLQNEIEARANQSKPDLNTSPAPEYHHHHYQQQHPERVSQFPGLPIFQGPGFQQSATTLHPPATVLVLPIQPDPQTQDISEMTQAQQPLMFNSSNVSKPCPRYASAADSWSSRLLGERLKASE

With OLV-mCherry (natural protein) the FRET efficiency was 3.5%.
